In the assay the target is PDF-2180 S ectodomain trimer (PDF-2180 (bat coronavirus, infects Pipisrellus hesperidus) | not stated). The experiment in a line: cryo-EM structure.

For “PDF-2180 S ectodomain trimer (domain or fragment)”, the stoichiometry N came out at 3.

Broadly, the stoichiometry N is a count of units in the complex or per binding partner.

Source of the values: publication PMC9734910.
